US20250035634A1, “A METHOD FOR DETECTING CLUSTERING OF RAS PROTEIN” (Nanyang Technological University, priority 2021, published 2025)

Tested on: KRasWT
Assay: nanobar-guided KRasWT clustering upon EGF activation in U2OS cells
Assay type: cell-based
Conditions: EGF 100 ng/ml, 1 hr, mean±s.e.m.
Method: Cell imaging is performed with laser scanning confocal microscopy (Zeiss LSM 800 with Airyscan) and a Plan-Apochromat 100×/1.4 oil objective. EGFP is excited at 488 nm and detected at 490-570 nm. RFP is excited at 561 nm and detected at 570-645 nm. Images were taken with a resolution of 512×512 pixels, 16-bit and 124 nm pixel size. A scanning speed of 20 s/image and an averaging mode of 4 times/line can be applied. During imaging, the cells are maintained in live cell imaging solution (Thermo Fisher) at 37° C. in an on-stage incubator. […] The images are conducted with a single snap shot for display of Ras variants and the quantification. For the imaging of co-expressed K-Ras variants and CRaf-RBD, z-stack images can be taken and averaged for display and the intensity profiles. […]
To quantify the nanobar-guided clustering of Ras variants, the fluorescence intensity ratio at the nanobar end to the flat sidewall (i.e. Enrichment Index, EI) is calculated. […] Next, the nanobars covered by the cell to be analyzed are identified by a custom-written MATLAB (MathWorks) code. […] To minimize the possible human bias, all the parameters for the calculation and the sorting criteria for data validation have been kept consistent throughout the entire quantification process. After the data validation, the remaining data points are ready for plotting. […]

B1: EGF: Epidermal Growth Factor used to activate wild-type K-Ras in cells (protein, UniProt P01133 23-1207, looked up)
Pro-epidermal growth factor: PQHWSCPEGTLAGNGNSTCVGPAPFLIFSHGNSIFRIDTEGTNYEQLVVDAGVSVIMDFHYNEKRIYWVDLERQLLQRVFLNGSRQERVCNIEKNVSGMAINWINEEVIWSNQQEGIITVTDMKGNNSHILLSALKYPANVAVDPVERFIFWSSEVAGSLYRADLDGVGVKALLETSEKITAVSLDVLDKRLFWIQYNREGSNSLICSCDYDGGSVHISKHPTQHNLFAMSLFGDRIFYSTWKMKTIWIANKHTGKDMVRINLHSSFVPLGELKVVHPLAQPKAEDDTWEPEQKLCKLRKGNCSSTVCGQDLQSHLCMCAEGYALSRDRKYCEDVNECAFWNHGCTLGCKNTPGSYYCTCPVGFVLLPDGKRCHQLVSCPRNVSECSHDCVLTSEGPLCFCPEGSVLERDGKTCSGCSSPDNGGCSQLCVPLSPVSWECDCFPGYDLQLDEKSCAASGPQPFLLFANSQDIRHMHFDGTDYGTLLSQQMGMVYALDHDPVENKIYFAHTALKWIERANMDGSQRERLIEEGVDVPEGLAVDWIGRRFYWTDRGKSLIGRSDLNGKRSKIITKENISQPRGIAVHPMAKRLFWTDTGINPRIESSSLQGLGRLVIASSDLIWPSGITIDFLTDKLYWCDAKQSVIEMANLDGSKRRRLTQNDVGHPFAVAVFEDYVWFSDWAMPSVMRVNKRTGKDRVRLQGSMLKPSSLVVVHPLAKPGADPCLYQNGGCEHICKKRLGTAWCSCREGFMKASDGKTCLALDGHQLLAGGEVDLKNQVTPLDILSKTRVSEDNITESQHMLVAEIMVSDQDDCAPVGCSMYARCISEGEDATCQCLKGFAGDGKLCSDIDECEMGVPVCPPASSKCINTEGGYVCRCSEGYQGDGIHCLDIDECQLGEHSCGENASCTNTEGGYTCMCAGRLSEPGLICPDSTPPPHLREDDHHYSVRNSDSECPLSHDGYCLHDGVCMYIEALDKYACNCVVGYIGERCQYRDLKWWELRHAGHGQQQKVIVVAVCVVVLVMLLLLSLWGAHYYRTQKLLSKNPKNPYEESSRDVRSRRPADTEDGMSSCPQPWFVVIKEHQDLKNGGQPVAGEDGQAADGSMQPTSWRQEPQLCGMGTEQGCWIPVSSDKGSCPQVMERSFHMPSYGTQTLEGGVEKPHSLLSANPLWQQRALDPPHQMELTQ
modifications: Pro-epidermal growth factor
Enrichment Index (EI) of KRasWT: 1.89 ± 0.042
